Measurements: PMC11931385, “Structural and functional analysis of cancer-associated missense variants in the retinoblastoma protein pocket domain” (The Journal of Biological Chemistry, 2025)
No end group written: not given here. TMR = tetramethyl rhodamine dye

Columns and labels:
Test in all cases: fluorescence polarisation; 25 °C; unlabeled Rb^P titrated against 1.5 nM TMR-E2F1^TD or 7.5 nM TMR-E7^LxCxE; 25 mM Tris pH 8.0, 200 mM NaCl, 1 mM DTT, 0.1% Tween-20; 2 min incubation; quadratic fit; apparent Kd for the variants, Kd for WT
Settings in all cases: both partners purified
Rb^P T664A = molecular target: T1, Rb^P T664A (human, UniProt P06400 380-788, T664A)
T1 construct: also called variant 50
T1 sequence (looked up): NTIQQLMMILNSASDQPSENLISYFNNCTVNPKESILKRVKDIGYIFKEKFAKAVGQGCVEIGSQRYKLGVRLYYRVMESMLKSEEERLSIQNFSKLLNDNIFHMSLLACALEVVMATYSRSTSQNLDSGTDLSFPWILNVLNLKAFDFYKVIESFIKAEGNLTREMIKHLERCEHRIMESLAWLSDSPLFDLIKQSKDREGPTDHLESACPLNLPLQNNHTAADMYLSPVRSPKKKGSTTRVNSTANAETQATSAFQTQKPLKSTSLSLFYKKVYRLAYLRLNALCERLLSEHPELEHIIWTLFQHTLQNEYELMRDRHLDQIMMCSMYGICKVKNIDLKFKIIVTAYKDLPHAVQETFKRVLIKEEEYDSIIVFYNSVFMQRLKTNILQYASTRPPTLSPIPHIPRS

Rb^P K530I = molecular target: T2, Rb^P K530I (human, UniProt P06400 380-788, K530I)
T2 construct: also called variant 21
T2 sequence (looked up): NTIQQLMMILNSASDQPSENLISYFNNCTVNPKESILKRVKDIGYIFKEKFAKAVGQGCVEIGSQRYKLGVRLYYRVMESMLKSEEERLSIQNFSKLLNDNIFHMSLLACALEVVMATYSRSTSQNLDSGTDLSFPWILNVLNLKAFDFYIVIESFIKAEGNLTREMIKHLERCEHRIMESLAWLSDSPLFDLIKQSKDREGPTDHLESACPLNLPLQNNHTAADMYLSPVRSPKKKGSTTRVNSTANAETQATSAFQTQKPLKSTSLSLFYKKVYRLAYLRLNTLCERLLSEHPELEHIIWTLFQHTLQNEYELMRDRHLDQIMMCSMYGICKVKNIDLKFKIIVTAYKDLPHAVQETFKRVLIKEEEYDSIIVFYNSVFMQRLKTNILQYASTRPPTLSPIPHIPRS

Rb^P L550I = molecular target: T3, Rb^P L550I (human, UniProt P06400 380-788, L550I)
T3 construct: also called variant 27
T3 sequence (looked up): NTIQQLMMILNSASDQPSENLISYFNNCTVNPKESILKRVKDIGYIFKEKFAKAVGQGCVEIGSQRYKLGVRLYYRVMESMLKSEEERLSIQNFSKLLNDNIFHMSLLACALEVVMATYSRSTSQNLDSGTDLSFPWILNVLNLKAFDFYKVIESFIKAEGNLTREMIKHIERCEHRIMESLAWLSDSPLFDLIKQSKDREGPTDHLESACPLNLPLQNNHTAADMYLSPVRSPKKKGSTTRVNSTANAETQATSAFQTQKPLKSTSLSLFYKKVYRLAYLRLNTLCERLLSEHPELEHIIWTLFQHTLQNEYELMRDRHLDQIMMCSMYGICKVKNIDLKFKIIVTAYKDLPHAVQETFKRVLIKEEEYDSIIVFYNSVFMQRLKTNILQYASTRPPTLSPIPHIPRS

Rb^P R668H = molecular target: T4, Rb^P R668H (human, UniProt P06400 380-788, R668H)
T4 construct: also called variant 52
T4 sequence (looked up): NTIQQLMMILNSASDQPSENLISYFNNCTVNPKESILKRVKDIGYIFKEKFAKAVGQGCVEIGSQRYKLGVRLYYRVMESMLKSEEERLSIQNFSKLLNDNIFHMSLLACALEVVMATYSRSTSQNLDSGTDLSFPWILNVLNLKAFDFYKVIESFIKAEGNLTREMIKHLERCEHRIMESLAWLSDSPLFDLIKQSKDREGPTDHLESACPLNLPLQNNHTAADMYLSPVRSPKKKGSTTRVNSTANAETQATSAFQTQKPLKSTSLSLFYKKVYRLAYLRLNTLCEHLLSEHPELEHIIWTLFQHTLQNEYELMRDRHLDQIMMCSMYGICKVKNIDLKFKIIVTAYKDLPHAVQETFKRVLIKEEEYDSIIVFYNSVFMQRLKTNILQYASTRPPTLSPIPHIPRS

Rb^P D697E = molecular target: T5, Rb^P D697E (human, UniProt P06400 380-788, D697E)
T5 construct: also called variant 62
T5 sequence (looked up): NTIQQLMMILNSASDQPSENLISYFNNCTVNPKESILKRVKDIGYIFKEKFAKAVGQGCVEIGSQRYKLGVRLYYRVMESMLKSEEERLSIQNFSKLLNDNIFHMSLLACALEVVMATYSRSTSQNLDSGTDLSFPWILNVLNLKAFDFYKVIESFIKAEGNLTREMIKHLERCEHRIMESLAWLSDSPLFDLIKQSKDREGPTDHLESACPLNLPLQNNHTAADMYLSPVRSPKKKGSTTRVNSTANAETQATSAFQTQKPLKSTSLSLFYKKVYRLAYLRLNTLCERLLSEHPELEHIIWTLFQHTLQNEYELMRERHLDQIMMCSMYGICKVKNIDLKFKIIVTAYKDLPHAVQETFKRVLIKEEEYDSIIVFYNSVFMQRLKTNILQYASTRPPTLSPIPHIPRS

B1: TMR-E2F1^TD, peptide of the E2F1 transactivation domain (peptide)
peptide: {TMR}-GEGIRDLFDCDFGDLTPLD
notes: also called E2F^TD; source: synthetic peptide, bought: GenScript
For B1, the Kd (Rb^P T664A) was 15 nM, the Kd (Rb^P K530I) was 945 nM and the Kd (Rb^P L550I) was 41 nM. The Kd (Rb^P R668H) was 13 nM and the Kd (Rb^P D697E) was 29 nM.

B2: TMR-E7^LxCxE, LxCxE peptide of the E7 oncoprotein from HPV (peptide)
peptide: DLYCYEQLN
modifications: also: TMR label, position not given here
notes: source: synthetic peptide, bought: GenScript
B2 was tested, and the Kd (Rb^P T664A) was 8 nM, the Kd (Rb^P K530I) was 8 nM and the Kd (Rb^P L550I) was 3 nM. It also gave a Kd (Rb^P R668H) of 7 nM and a Kd (Rb^P D697E) of 9 nM.
